# ± gives the uncertainty stated by the source.
# B1: Steroid hormone receptor ERR2, residues 100 to 176; numbered along this chain, O95718 (parent)
# chain: KRLCLVCGDIASGYHYGVASCEACKAFFKRTIQGNIEYSCPATNECEITKRRRKSCQACRFMKCLKVGMLKEGVRLD
# Variants of: B1
# Assay: abundance fitness (aPCA) (normalised: wild type 0, dead -1); higher = more abundant; growth selection in yeast, the domain comes from the species named
# Details: Homo sapiens
row,Variant,abundance fitness
1,KRLCLVCGDIAHGYHYGVASCEACKAFFKRTIQGNIEYSCPATNECEITKRRRKSCQACRFMKCLKVGMLKEGVRLD,0.082 ± 0.072
2,KRLCLVCGDIALGYHYGVASCEACKAFFKRTIQGNIEYSCPATNECEITKRRRKSCQACRFMKCLKVGMLKEGVRLD,-0.156 ± 0.053
3,KRLCLVCGDIAPGYHYGVASCEACKAFFKRTIQGNIEYSCPATNECEITKRRRKSCQACRFMKCLKVGMLKEGVRLD,-0.161 ± 0.087
4,KRLCLVCGDIARGYHYGVASCEACKAFFKRTIQGNIEYSCPATNECEITKRRRKSCQACRFMKCLKVGMLKEGVRLD,-0.026 ± 0.047
5,KRLCLVCGDIATGYHYGVASCEACKAFFKRTIQGNIEYSCPATNECEITKRRRKSCQACRFMKCLKVGMLKEGVRLD,-0.138 ± 0.06
6,KRLCLVCGDIAMGYHYGVASCEACKAFFKRTIQGNIEYSCPATNECEITKRRRKSCQACRFMKCLKVGMLKEGVRLD,-0.118 ± 0.063
7,KRLCLVCGDIADGYHYGVASCEACKAFFKRTIQGNIEYSCPATNECEITKRRRKSCQACRFMKCLKVGMLKEGVRLD,0.022 ± 0.072
8,KRLCLVCGDIAIGYHYGVASCEACKAFFKRTIQGNIEYSCPATNECEITKRRRKSCQACRFMKCLKVGMLKEGVRLD,-0.327 ± 0.14
9,KRLCLVCGDIAVGYHYGVASCEACKAFFKRTIQGNIEYSCPATNECEITKRRRKSCQACRFMKCLKVGMLKEGVRLD,0.029 ± 0.051
10,KRLCLVCGDIAYGYHYGVASCEACKAFFKRTIQGNIEYSCPATNECEITKRRRKSCQACRFMKCLKVGMLKEGVRLD,-0.32 ± 0.12
11,KRLCLVCGDIAGGYHYGVASCEACKAFFKRTIQGNIEYSCPATNECEITKRRRKSCQACRFMKCLKVGMLKEGVRLD,-0.023 ± 0.048
12,KRLCLVCGDIACGYHYGVASCEACKAFFKRTIQGNIEYSCPATNECEITKRRRKSCQACRFMKCLKVGMLKEGVRLD,0.155 ± 0.073
13,KRLCLVCGDIANGYHYGVASCEACKAFFKRTIQGNIEYSCPATNECEITKRRRKSCQACRFMKCLKVGMLKEGVRLD,-0.019 ± 0.087
14,KRLCLVCGDIAWGYHYGVASCEACKAFFKRTIQGNIEYSCPATNECEITKRRRKSCQACRFMKCLKVGMLKEGVRLD,-0.253 ± 0.083
15,KRLCLVCGDIAQGYHYGVASCEACKAFFKRTIQGNIEYSCPATNECEITKRRRKSCQACRFMKCLKVGMLKEGVRLD,0.115 ± 0.068
16,KRLCLVCGDIAEGYHYGVASCEACKAFFKRTIQGNIEYSCPATNECEITKRRRKSCQACRFMKCLKVGMLKEGVRLD,-0.02 ± 0.062
17,KRLCLVCGDIAAGYHYGVASCEACKAFFKRTIQGNIEYSCPATNECEITKRRRKSCQACRFMKCLKVGMLKEGVRLD,0.031 ± 0.053
18,KRLCLVCGDITSGYHYGVASCEACKAFFKRTIQGNIEYSCPATNECEITKRRRKSCQACRFMKCLKVGMLKEGVRLD,-0.321 ± 0.091

row,Variant,abundance fitness
1,KRLCLVCGDIVSGYHYGVASCEACKAFFKRTIQGNIEYSCPATNECEITKRRRKSCQACRFMKCLKVGMLKEGVRLD,-0.289 ± 0.063
2,KRLCLVCGDIYSGYHYGVASCEACKAFFKRTIQGNIEYSCPATNECEITKRRRKSCQACRFMKCLKVGMLKEGVRLD,-0.128 ± 0.092
3,KRLCLVCGDIASDYHYGVASCEACKAFFKRTIQGNIEYSCPATNECEITKRRRKSCQACRFMKCLKVGMLKEGVRLD,-0.02 ± 0.092
4,KRLCLVCGDIASVYHYGVASCEACKAFFKRTIQGNIEYSCPATNECEITKRRRKSCQACRFMKCLKVGMLKEGVRLD,-0.38 ± 0.09
5,KRLCLVCGDIASIYHYGVASCEACKAFFKRTIQGNIEYSCPATNECEITKRRRKSCQACRFMKCLKVGMLKEGVRLD,0.038 ± 0.17
6,KRLCLVCGDIASQYHYGVASCEACKAFFKRTIQGNIEYSCPATNECEITKRRRKSCQACRFMKCLKVGMLKEGVRLD,-0.244 ± 0.2
7,KRLCLVCGDIASSYHYGVASCEACKAFFKRTIQGNIEYSCPATNECEITKRRRKSCQACRFMKCLKVGMLKEGVRLD,-0.555 ± 0.12
8,KRLCLVCGDIASLYHYGVASCEACKAFFKRTIQGNIEYSCPATNECEITKRRRKSCQACRFMKCLKVGMLKEGVRLD,-0.743 ± 0.12
9,KRLCLVCGDIASFYHYGVASCEACKAFFKRTIQGNIEYSCPATNECEITKRRRKSCQACRFMKCLKVGMLKEGVRLD,-0.27 ± 0.16
10,KRLCLVCGDIASPYHYGVASCEACKAFFKRTIQGNIEYSCPATNECEITKRRRKSCQACRFMKCLKVGMLKEGVRLD,-0.393 ± 0.18
11,KRLCLVCGDIASKYHYGVASCEACKAFFKRTIQGNIEYSCPATNECEITKRRRKSCQACRFMKCLKVGMLKEGVRLD,-0.336 ± 0.23
12,KRLCLVCGDIASMYHYGVASCEACKAFFKRTIQGNIEYSCPATNECEITKRRRKSCQACRFMKCLKVGMLKEGVRLD,-0.539 ± 0.19
13,KRLCLVCGDIASRYHYGVASCEACKAFFKRTIQGNIEYSCPATNECEITKRRRKSCQACRFMKCLKVGMLKEGVRLD,-0.675 ± 0.14
14,KRLCLVCGDIASNYHYGVASCEACKAFFKRTIQGNIEYSCPATNECEITKRRRKSCQACRFMKCLKVGMLKEGVRLD,-0.362 ± 0.21
15,KRLCLVCGDIASHYHYGVASCEACKAFFKRTIQGNIEYSCPATNECEITKRRRKSCQACRFMKCLKVGMLKEGVRLD,-0.759 ± 0.46
16,KRLCLVCGDIASAYHYGVASCEACKAFFKRTIQGNIEYSCPATNECEITKRRRKSCQACRFMKCLKVGMLKEGVRLD,-0.751 ± 0.17
17,KRLCLVCGDIASCYHYGVASCEACKAFFKRTIQGNIEYSCPATNECEITKRRRKSCQACRFMKCLKVGMLKEGVRLD,-0.947 ± 0.29
18,KRLCLVCGDIASTYHYGVASCEACKAFFKRTIQGNIEYSCPATNECEITKRRRKSCQACRFMKCLKVGMLKEGVRLD,-0.509 ± 0.17
